50 molecules from patent US20140179896A1 (published 2014) can be followed below.

The assay concerns the target T1, human vascular endothelial growth factor receptor-2 Fc chimera (KDR-Fc) (human, UniProt P35968 20-764).
T1 construct: range 1-764; also called human VEGFR-2; VEGF-R2-Fc; not shown: human IgG1 Fc
Put plainly: radioactive equilibrium binding, 1 nM KDR-Fc. Here is the method: To prepare ³⁵S-labeled binding proteins for analysis, mRNA was prepared as described above for RNA-protein fusion production but the linker ligation step was omitted. The mRNA was expressed using rabbit reticulocyte lysate translation kit (Ambion) in the presence of ³⁵S-labeled Met at 30° C. for 1 hour. Expressed protein was purified on M2-agarose Flag beads (Sigma) as described above. This procedure produced the encoded protein without the nucleic acid tail. In a direct binding assay, VEGF-R2-Fc fusions in concentrations ranging from 0 to 200 nM were added to a constant concentration of the purified protein (0.2 or 0.5 nM) and incubated at 30° C. for 1 hour in buffer B. The receptor-binder complexes were captured using Protein A magnetic beads for another 10 minutes at room temperature using a Kingfisher™ The beads were washed with six reaction volumes of buffer B. The protein was eluted from the beads with 100 μL of 0.1 M KOH. […] of the reaction mixture and elution were dried onto a LumaPlate-96 (Packard) and the amount of ³⁵S on the plate was measured using a TopCount NXT instrument (Packard). The amount of fibronectin-based scaffold protein bound to the target was estimated as a percent of radioactivity eluted from Protein A magnetic beads compare to radioactivity in the reaction mixture. Nonspecific binding of fibronectin-based scaffold proteins to the beads was determined by measuring binding in the absence of KDR-Fc and represented less than 1-2% of the input. Specific binding was obtained through subtraction of nonspecific binding from total binding. Data was analyzed using the GraphPad Prizm software (GraphPad Software, Inc, San Diego, Calif.), fitted using a one site, non-linear binding equation.

Substitutions are numbered along the chain they refer to.

T1 sequence (P35968 20-764 limits assumed, change not shown, form in doubt): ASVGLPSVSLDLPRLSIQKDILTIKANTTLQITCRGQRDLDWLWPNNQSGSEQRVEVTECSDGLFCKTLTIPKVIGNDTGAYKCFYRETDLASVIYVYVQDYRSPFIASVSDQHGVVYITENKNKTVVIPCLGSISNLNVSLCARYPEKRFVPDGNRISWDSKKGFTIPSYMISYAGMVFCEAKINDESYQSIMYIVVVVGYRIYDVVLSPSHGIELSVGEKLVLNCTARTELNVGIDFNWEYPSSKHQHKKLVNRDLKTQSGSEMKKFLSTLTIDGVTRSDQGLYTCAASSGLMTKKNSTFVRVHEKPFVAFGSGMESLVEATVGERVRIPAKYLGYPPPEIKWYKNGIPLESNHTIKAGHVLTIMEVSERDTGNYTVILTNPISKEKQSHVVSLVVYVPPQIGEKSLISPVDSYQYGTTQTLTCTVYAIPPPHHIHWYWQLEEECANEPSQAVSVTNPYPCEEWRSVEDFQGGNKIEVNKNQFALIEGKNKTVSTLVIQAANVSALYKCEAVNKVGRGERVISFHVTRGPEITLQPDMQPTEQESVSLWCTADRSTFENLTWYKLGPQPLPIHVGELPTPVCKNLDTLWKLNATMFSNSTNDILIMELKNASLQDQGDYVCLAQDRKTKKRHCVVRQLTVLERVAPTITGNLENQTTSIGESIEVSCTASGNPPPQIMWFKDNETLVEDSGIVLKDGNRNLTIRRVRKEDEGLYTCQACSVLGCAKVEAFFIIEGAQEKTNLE

B1: 2′Del F8 PR4 (designed binder)
chain: EVVAATPTSLLISWRHPHFPTRYYRITYGETGGNSPVQEFTVPLQPPTATISGLKPGVDYTITGYAVTAGPGAHELLTPISINYRT
notes: Del 1-8
Take B1: the “Binding to 1 nM KDR, %” value came to 42%.

B2: 3F8 PR3 (designed binder)
chain: B1 chain with A69V, G70A, P71Q, G72N, A73G, L77K
notes: Del 1-8
On to B2, for which the “Binding to 1 nM KDR, %” value came out at 17%.

B3: 2′DelE4 PR4 (designed binder)
chain: B1 chain with A69V, G70H, P71W, G72N, A73G, L77M
notes: Del 1-8
B3: the “Binding to 1 nM KDR, %” value stood at 34%.

B4: 3′C3 PR4 (designed binder)
chain: B1 chain with A69M, G70A, P71Q, G72N, A73G, E75A, L77F
notes: Del 1-8
For the molecule B4, the “Binding to 1 nM KDR, %” value turned out to be 32%.

B5: 3′C5 PR4 (designed binder)
chain: B1 chain with A69D, G70A, P71M, G72Y, A73G, H74R, L77M
notes: Del 1-8
Regarding B5, the “Binding to 1 nM KDR, %” value turned out to be 27%.

B6: 3′A7 PR4 (designed binder)
chain: B1 chain with A69L, G70S, P71D, G72S, A73G, E75A, L77F
notes: Del 1-8
Take B6: the “Binding to 1 nM KDR, %” value worked out at 34%.

B7: 3A2 PR3 (designed binder)
chain: B1 chain with A69W, G70S, P71Q, G72N, A73N, H74R, L77F
notes: Del 1-8
As to B7, the “Binding to 1 nM KDR, %” value was found to be 23%.

B8: 2′Del H6 PR4 (designed binder)
chain: B1 chain with A69T, P71H, G72H, A73D, L77I, T78I
notes: Del 1-8
In the case of B8, the “Binding to 1 nM KDR, %” value came to 28%.

B9: 3′B10 PR4 (designed binder)
chain: B1 chain with A69L, G70A, P71Q, G72T, A73G, H74R
notes: Del 1-8
With B9, the “Binding to 1 nM KDR, %” value was 21%.

B10: 3′B2 PR4 (designed binder)
chain: B1 chain with A69V, P71R, G72N, A73D, H74R
notes: Del 1-8
For B10, the “Binding to 1 nM KDR, %” value was determined as 29%.

B11: 2′DelH9 PR4 (designed binder)
chain: B1 chain with A69V, P71W, G72S, A73G, L77F, T78V
notes: Del 1-8
In the case of B11, the “Binding to 1 nM KDR, %” value amounted to 20%.

B12: 3′E3 PR4 (designed binder)
chain: B1 chain with A69M, G70A, P71Q, G72Y, A73G, H74R
notes: Del 1-8
Regarding B12, the “Binding to 1 nM KDR, %” value amounted to 41%.

B13: 3B5 PR3 (designed binder)
chain: B1 chain with A69F, P71Q, G72N, A73G, E75A
notes: Del 1-8
For the molecule B13, the “Binding to 1 nM KDR, %” value was 20%.

B14: 2′DelA5 PR4 (designed binder)
chain: B1 chain with A69W, G70N, P71Q, G72N, A73G, H74Q, L77F
notes: Del 1-8
On to B14, for which the “Binding to 1 nM KDR, %” value came out at 20%.

B15: 3′B8 PR4 (designed binder)
chain: B1 chain with A69L, P71Y, G72H, A73D, E75A, L77F
notes: Del 1-8
Regarding B15, the “Binding to 1 nM KDR, %” value was determined as 14%.

B16: 3′A8 PR4 (designed binder)
chain: B1 chain with A69V, G70A, P71W, G72D, A73D
notes: Del 1-8
For B16, the “Binding to 1 nM KDR, %” value was found to be 27%.

B17: 3′D9 PR4 (designed binder)
chain: B1 chain with A69G, G70Y, P71Y, G72N, A73D, H74R
notes: Del 1-8
With B17, the “Binding to 1 nM KDR, %” value was found to be 30%.

B18: 3′B12 PR4 (designed binder)
chain: B1 chain with A69V, G70A, P71H, G72E, A73N, H74R
notes: Del 1-8
As for B18, the “Binding to 1 nM KDR, %” value came out at 28%.

B19: 2′DelC3 PR4 (designed binder)
chain: B1 chain with A69W, G70A, P71Q, G72N, A73G, H74R
notes: Del 1-8
Turning to B19, the “Binding to 1 nM KDR, %” value was 29%.

B20: 3′D2 PR4 (designed binder)
chain: B1 chain with A69V, G70E, P71S, G72N, A73G, E75A, L77F, T78V
notes: Del 1-8
For the molecule B20, the “Binding to 1 nM KDR, %” value was determined as 19%.

B21: 3′D3 PR4 (designed binder)
chain: B1 chain with A69P, A73D, H74R, L77I
notes: Del 1-8
For the molecule B21, the “Binding to 1 nM KDR, %” value came to 42%.

B22: 3C7 PR3 (designed binder)
chain: B1 chain with A69R, P71L, G72N, A73D, H74G
notes: Del 1-8
On to B22, for which the “Binding to 1 nM KDR, %” value amounted to 20%.

B23: 3G2 PR3 (designed binder)
chain: B1 chain with A69F, G72S, A73D, E75V
notes: Del 1-8
For B23, the “Binding to 1 nM KDR, %” value worked out at 20%.

B24: 3′B4 PR4 (designed binder)
chain: B1 chain with A69V, G70A, P71W, G72N, A73G, L77M
notes: Del 1-8
As to B24, the “Binding to 1 nM KDR, %” value came to 38%.

B25: 3′C6 PR4 (designed binder)
chain: B1 chain with A69M, G72N, A73D, H74R
notes: Del 1-8
As for B25, the “Binding to 1 nM KDR, %” value was found to be 37%.

B26: 3′A9 PR4 (designed binder)
chain: B1 chain with A69L, G70A, P71H, G72N, A73D, H74R
notes: Del 1-8
Consider B26, for which the “Binding to 1 nM KDR, %” value was determined as 25%.

B27: 3D12 PR3 (designed binder)
chain: B1 chain with A69L, P71Q, G72N, A73D, H74R, E75Q, T78V
notes: Del 1-8
As for B27, the “Binding to 1 nM KDR, %” value is 24%.

B28: 2′Del H5 PR4 (designed binder)
chain: B1 chain with A69L, P71K, G72D, A73V, H74R
notes: Del 1-8
For B28, the “Binding to 1 nM KDR, %” value amounted to 34%.

B29: 2′Del F11 PR4 (designed binder)
chain: B1 chain with A69M, P71Q, G72N, A73D, H74K, L77I
notes: Del 1-8
Consider B29, for which the “Binding to 1 nM KDR, %” value was found to be 27%.

B30: 3′C12 PR4 (designed binder)
chain: B1 chain with A69I, G72N, A73N
notes: Del 1-8
In the case of B30, the “Binding to 1 nM KDR, %” value is 33%.

B31: 3C9 PR3 (designed binder)
chain: B1 chain with A69L, G70V, P71R, G72N, A73D
notes: Del 1-8
B31: the “Binding to 1 nM KDR, %” value came to 16%.

B32: 3′A6 PR4 (designed binder)
chain: B1 chain with A69L, G70A, P71Q, G72N, A73G
notes: Del 1-8
Take B32: the “Binding to 1 nM KDR, %” value came to 19%.

B33: 3′E1 PR4 (designed binder)
chain: B1 chain with A69V, G70A, G72N, A73G, L77F
notes: Del 1-8
For B33, the “Binding to 1 nM KDR, %” value worked out at 32%.

B34: 2′Del G9 PR4 (designed binder)
chain: B1 chain with A69V, G70E, P71Q, G72N, A73G, H74R, L77I, T78I
notes: Del 1-8
B34: the “Binding to 1 nM KDR, %” value turned out to be 33%.

B35: 3A3 PR3 (designed binder)
chain: B1 chain with A69L, G70A, P71Y, G72N, A73G, H74R, L76I, L77I
notes: Del 1-8
Take B35: the “Binding to 1 nM KDR, %” value stood at 23%.

B36: 2′DelG5 PR4 (designed binder)
chain: B1 chain with A69V, P71Q, G72N, A73N
notes: Del 1-8
In the case of B36, the “Binding to 1 nM KDR, %” value stood at 19%.

B37: 3′C8 PR4 (designed binder)
chain: B1 chain with A69E, P71L, G72N, A73D, L77M, T78I
notes: Del 1-8
In the case of B37, the “Binding to 1 nM KDR, %” value was 19%.

B38: 3′D8 PR4 (designed binder)
chain: B1 chain with G72N, A73D, E75Q, L77F
notes: Del 1-8
On to B38, for which the “Binding to 1 nM KDR, %” value worked out at 27%.

B39: 2′DelH4 PR4 (designed binder)
chain: B1 chain with A69V, G72N, A73E, H74R, E75M, L77M
notes: Del 1-8
Take B39: the “Binding to 1 nM KDR, %” value turned out to be 30%.

B40: 3C3 PR3 (designed binder)
chain: B1 chain with A69M, G70E, P71Q, G72N, A73G, L77F
notes: Del 1-8
Regarding B40, the “Binding to 1 nM KDR, %” value was 17%.

B41: 3′B11 PR4 (designed binder)
chain: B1 chain with A69E, G70T, P71W, G72N, A73D, L76I, L77R
notes: Del 1-8
As for B41, the “Binding to 1 nM KDR, %” value worked out at 23%.

B42: 3′E9 PR4 (designed binder)
chain: B1 chain with A69V, G70E, P71Q, G72D, A73G, E75V, L77Y, T78I
notes: Del 1-8
For B42, the “Binding to 1 nM KDR, %” value came to 44%.

B43: 2′Del G11 PR4 (designed binder)
chain: B1 chain with A69G, P71Q, G72M, A73N, H74R, E75V, L77M
notes: Del 1-8
On to B43, for which the “Binding to 1 nM KDR, %” value was 22%.

B44: 3′E5 PR4 (designed binder)
chain: B1 chain with A69V, G70A, P71W, G72D, A73G, H74R, L77F
notes: Del 1-8
Take B44: the “Binding to 1 nM KDR, %” value amounted to 23%.

B45: 2′DelB7 PR4 (designed binder)
chain: B1 chain with A69V, P71Y, G72N, A73N, H74R
notes: Del 1-8
With B45, the “Binding to 1 nM KDR, %” value worked out at 32%.

B46: 3F10 PR3 (designed binder)
chain: B1 chain with A69L, G70A, P71Q, G72D, A73D
notes: Del 1-8
B46: the “Binding to 1 nM KDR, %” value is 16%.

B47: 3B4 PR3 (designed binder)
chain: B1 chain with A69V, P71Q, G72N, A73E
notes: Del 1-8
Take B47: the “Binding to 1 nM KDR, %” value came to 17%.

B48: 2′DelC7 PR4 (designed binder)
chain: B1 chain with A69W, G70D, P71Q, G72N, A73G, E75V
notes: Del 1-8
In the case of B48, the “Binding to 1 nM KDR, %” value turned out to be 19%.

B49: 3′B1 PR4 (designed binder)
chain: B1 chain with A69E, G70A, P71R, G72N, A73G, H74R
notes: Del 1-8
In the case of B49, the “Binding to 1 nM KDR, %” value was 25%.

B50: 2′Del H12 PR4 (designed binder)
chain: B1 chain with P71G, G72N, A73G
notes: Del 1-8
As for B50, the “Binding to 1 nM KDR, %” value turned out to be 24%.
